Assay results taken from patent publication US20230035403A1, “Method For Determining Responsiveness To Prostate Cancer Treatment” (Janssen Biotech, Inc., priority 2020, published 2023).

Experiments:
Test in all cases: In vitro binding of neoantigens to class I MHC (UV peptide exchange, HLA class I ELISA)
Conditions in all cases: 100% = same binding affinity as positive control peptide
HLA-A*01:01 = HLA-A*01:01 (Homo sapiens, UniProt P04439, A114D/A174V/A182V/D101N/D185E/E176A/E190D/L180R/Q94H/R68K/S129P/T187R/V100A/V91M/W191G)
Procedure, shortened: (§1)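 Conditional biotinylated HLA class I complexes were UV-irradiated with candidate 9-mer peptides to drive peptide exchange, alongside a positive-control (Pos) peptide and a no-peptide UV control. Intact complexes were captured on streptavidin and detected with an HRP anti-B2M antibody, read as absorbance. Binding is expressed as exchange percentage relative to Pos.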

HLA-A*02:01 = HLA-A*02:01 (Homo sapiens, UniProt P04439, D140Y/D185E/D98H/E176V/E277Q/G131W/G231S/I119V/I121R/I166T/I218V/L300P/L318F/N151K/N90K/P208A/P217A/Q86G/Q94H/R138H/R169H/T345S)
Procedure, shortened: as §1

HLA-B*07:02 = HLA-B*07:02 (Homo sapiens, UniProt P01889)
Procedure, shortened: as §1

HLA-A*24:02 = HLA-A*24:02 (Homo sapiens, UniProt P04439, D101N/D140Y/D185E/E176V/E190D/F33S/G103R/G107R/I119L/I121M/I306V/K335N/L105A/L180Q/L300P/N151K/N90K/Q86E/Q94H/R106L/R138H/R89G/T104I/T345S/V100E/W191G/Y123F)
Procedure, shortened: as §1

Sequence | Exchange rate with the allele specific Pos peptide, HLA-A*01:01 (HLA-A*01:01) | Exchange rate with the allele specific Pos peptide, HLA-A*02:01 (HLA-A*02:01) | Exchange rate with the allele specific Pos peptide, HLA-B*07:02 (HLA-B*07:02) | Exchange rate with the allele specific Pos peptide, HLA-A*24:02 (HLA-A*24:02)
SLYHREKQLIAMDSAI [Neoantigen P22] | 4.4% | 46.9% | 8.3% | 0%
YEAGMTLGEKFRVGNCKHLKMTRP [Neoantigen P82] | 1.5% | 6.3% | 12.9% | −0.1%
YEAGMTLGGKILFFLFLLLPLSPFSLIF [Neoantigen P87] | 1.1% | 64% | 5% | 0.2%
